Assays:
CT26.CL25 cells = test: Cytotoxicity by CCK-8 (cell counting kit-8); type: cell-based, mouse; settings: 800 nM, 72 hours
Experimental: Then, the cells were analyzed using the CCK-8 (cell counting kit-8) kit.

[1] = test system: macrophages (bone marrow-derived macrophages, BMDM); test: Macrophage phagocytosis of treated cancer cells (fluorescence microscopy); type: cell-based, mouse
Experimental: After the culturing was completed, the CT26.CL25 cells were stained with pHrodo Red (Invitrogen, CA, USA) and, after adding macrophages (bone marrow-derived macrophages, BMDM) extracted from the bone marrow of a laboratory mouse (C57BL/6, male, 6-week-old), cultured for 3 hours in RPMI 1640 medium. The macrophages were stained with Green Cell Tracker (Thermo Fisher Scientific, MS, USA) and fluorescence was measured using a fluorescence microscope (Nikon, Japan).
A control group was treated only with the SIPRα protein.

HPRT gene = test: Silencing effect for HPRT gene expression (RT-PCR, agarose gel); type: cell-based, rat; settings: CT26.CL25 cells, 4 hours serum-free then 2 days
papain enzyme = target: T1, papain enzyme (Carica papaya, UniProt P00784); test: Enzyme specificity: cleavage by papain enzyme, analysed by HPLC; type: biochemical
T1 sequence (P00784 134-345): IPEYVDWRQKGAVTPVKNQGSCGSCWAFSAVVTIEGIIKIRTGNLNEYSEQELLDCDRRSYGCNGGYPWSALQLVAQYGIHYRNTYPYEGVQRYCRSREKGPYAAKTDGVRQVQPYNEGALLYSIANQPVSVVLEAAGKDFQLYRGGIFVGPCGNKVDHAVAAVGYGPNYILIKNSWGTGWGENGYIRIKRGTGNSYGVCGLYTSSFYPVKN
Experimental: After adsorbing the sample to a C18 column (Xbridge C18, Waters, MS, USA), it was analyzed by HPLC (Agilent Technologies, CA, USA) while eluting for 30 minutes with concentration gradients using 0.1% TFA/5-95% ACN solutions.

HT-29 cells = test: Intracellular delivery (uptake) by confocal microscopy; type: cell-based, human
Experimental: First, 2×10^5 HT-29 cells, which are human-derived colon cancer cells, were seeded onto a 35-mm cover glass bottom dish. […] Then, CD47 SiRNA was stained red by using the TOTO3 stain. Next, after treating with the fusion protein-siRNA complex separated and purified in Example 2 at a concentration of 100 pmol/mL, the cells were cultured for 4 hours in a carbon dioxide incubator at 37 °C. Then, the cells were treated with a fixative and the SIRPα protein was stained green using FITC-labeled His-tag antibody. After staining the nuclei of the cells by treating with a 4',6-diamidino-2-phenylindole (DAPI) solution for 10 minutes, fluorescence was measured by confocal microscopy.
In the figure, the blue color corresponds to the nuclei of the cells, the red color to the CD47 siRNA, and the green color to the SIRPα protein.

cancer cells = test: Pharmacological effect on cancer cells (general statement, no method given)
CD47 gene = test: Silencing effect for CD47 gene expression (RT-PCR, agarose gel); type: cell-based, mouse; settings: CT26.CL25 cells, 4 hours serum-free then 2 days, without CD47 antibody (-)

B1: Example 2: Immunoregulatory fusion protein (SIRPα-linker, SEQ ID NO 1) bound 1 : 1 via cysteine thiol-maleimide to CD47 siRNA (SEQ ID NO 17/18) (conjugate)
chain 1: EEELQIIQPDKSVLVAAGETATLRCTITSLFPVGPIQWFRGAGPGRVLIYNQRQGPFPRVTTVSDTTKRNNMDFSIRIGNITPADAGTYYCIKFRKGSPDDVEFKSGAGTELSVRAKPVDGGFLGGGGCG
chain 2: gggauauuaauacuacuucaguacaca
chain 3: uguacugaaguauuaauauccccg
modifications: cysteine thiol-maleimide conjugation of protein to siRNA; fusion protein; siRNA_DNA : The 26th and 27th nucleotide sequences are DNA; siRNA ansti sense
cell viability (CT26.CL25 cells): ≥ 80%
phagocytosis by macrophages ([1]; CT26.CL25 cells treated at 200 pmol/mL for two days, then BMDM for 3 hours, compared with siRNA alone): enhances phagocytosis by macrophages better than when the siRNA was used alone
effect of enhancing macrophage phagocytosis as compared to only the siRNA (CD47 siRNA) or the SIPRα protein ([1]; printed as 1.5-3 times or higher): 1.5-3 times
expression level of the HPRT gene (HPRT gene): little change in the expression level of the HPRT gene
SIRPα protein detected by HPLC (papain enzyme; after treating with the papain enzyme, room temperature, 10 minutes): detected after treating with the papain enzyme
SIRPα protein detected by HPLC (papain enzyme; complex not treated with the papain enzyme (control)): not detected
absorption into cells (HT-29 cells; confocal microscopy): effectively absorbed into cells
intracellular uptake (HT-29 cells; treated together with the CD47 antibody): decreased significantly
superior pharmacological effect on cancer cells as compared to the fusion protein or the siRNA administered alone (cancer cells): 1.5-5 times
expression of the CD47 gene (CD47 gene): decreases the expression of the CD47 gene to a level comparable to that of the lipofectamine-siRNA complex

Source: patent EP4197559A1, “IMMUNOMODULATORY PROTEIN-SIRNA COMPLEX HAVING ANTICANCER ACTIVITY” (Korea Institute of Science and Technology, priority 2020, dated 2022)
